Reference: the RNAGym collection of RNA variant scans (doi:10.1073/pnas.2313332121)
Variants at the floor of the assay were thinned out.

B1: TPR 5TU (parent)
chain: GGAUCUUCUCGAUCUAACAAAAAAGACAAAUCUGCCACAAAGCUUGAGAGCAUCUUCGGAUGCAGAGGCGGCAGCCUUCGGUGGCGCGAUAGCGCCAACGUUCUCAACUAUGACACGCAAAACGCGUGCUCCGUUGAAUGGAGUUUAUCAUG

Variants of: B1
Experiment: polymerase ribozyme fitness, log enrichment relative to wild type (log ratio); higher = more active; in vitro selection for triplet polymerase activity
Outline: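 Genotype fitness is the logarithm of its enrichment divided by wild-type enrichment, using inverse-variance-weighted averages of replicates. That logarithm is base 2. Enrichment was measured by Illumina sequencing of input and output libraries from one triplicate in vitro selection round, with frozen incubation at −7 °C, on PCR-built, transcribed mutant libraries of each subunit of a heterodimeric triplet polymerase ribozyme, retaining genotypes with ≥10 input reads and ≥1 read per output.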
With C38U C57G C75U G86A U148A the “polymerase ribozyme fitness (log ratio)” value was at most -4.2. In the case of C38U A120U A142U, the “polymerase ribozyme fitness (log ratio)” value is reported as -0.329. With C38U A49C A66G A138U U144C the “polymerase ribozyme fitness (log ratio)” value was at most -4.2. For C38U C93U, the “polymerase ribozyme fitness (log ratio)” value was -1.06. In the case of C36A G70U G80U C105U, the “polymerase ribozyme fitness (log ratio)” value is reported as -0.569. For A37G C51U, the “polymerase ribozyme fitness (log ratio)” value was -2.54. For C36A C54G U61G C79A G80A U102C, the “polymerase ribozyme fitness (log ratio)” value was at most -4.2. In the case of C38G C95A A150U, the “polymerase ribozyme fitness (log ratio)” value is reported as -0.802. With C38G C85G C105U A121U G124A the “polymerase ribozyme fitness (log ratio)” value was -2.25. With C38A G50U the “polymerase ribozyme fitness (log ratio)” value was -0.722. With C36G C57G C72G C118U the “polymerase ribozyme fitness (log ratio)” value was at most -4.2. With C36U A60G C87A G88C G141C the “polymerase ribozyme fitness (log ratio)” value was at most -4.2. In the case of C36U G81A C95G C96A C99U C149G, the “polymerase ribozyme fitness (log ratio)” value is reported as at most -4.2. In the case of A37G C51G A52G U53A A89C G136C A138U, the “polymerase ribozyme fitness (log ratio)” value is reported as at most -4.2. With C36U A142C the “polymerase ribozyme fitness (log ratio)” value was -2.05. In the case of C38A C95A U135A, the “polymerase ribozyme fitness (log ratio)” value is reported as -1.76. With C36A G67C G68C A73U C87A U148C the “polymerase ribozyme fitness (log ratio)” value was at most -4.2. In the case of C35U U77A C149A, the “polymerase ribozyme fitness (log ratio)” value is reported as at most -4.2. With A39C A91C A137G the “polymerase ribozyme fitness (log ratio)” value was at most -4.2. With C36U C87A G117U the “polymerase ribozyme fitness (log ratio)” value was at most -4.2. In the case of C38U A47U A121U U135A A142U, the “polymerase ribozyme fitness (log ratio)” value is reported as -2.42. For C36U U56A C76U G86A A115C, the “polymerase ribozyme fitness (log ratio)” value was -3.51. For C38A U90A G92A C103G G117U A138G, the “polymerase ribozyme fitness (log ratio)” value was at most -4.2. With C35U U53A U55A C57G G70A G84A C93A the “polymerase ribozyme fitness (log ratio)” value was at most -4.2. With A37C A49C G124A U130G the “polymerase ribozyme fitness (log ratio)” value was at most -4.2. With A37C G86U C87U C108U A113G G117A the “polymerase ribozyme fitness (log ratio)” value was at most -4.2. For C38U C57A C87A, the “polymerase ribozyme fitness (log ratio)” value was at most -4.2. For C36G C87U A106U, the “polymerase ribozyme fitness (log ratio)” value was at most -4.2. In the case of C36U U56G A60C U61G C79U C93U C99U G112C U144A A150C, the “polymerase ribozyme fitness (log ratio)” value is reported as at most -4.2. With C38U C57A G74U G83C the “polymerase ribozyme fitness (log ratio)” value was at most -4.2. In the case of C38A U56A G128U, the “polymerase ribozyme fitness (log ratio)” value is reported as -3.69. For C38G G86U C118U, the “polymerase ribozyme fitness (log ratio)” value was -2. With A37C G83A the “polymerase ribozyme fitness (log ratio)” value was -0.102. With C38U G70A the “polymerase ribozyme fitness (log ratio)” value was -2.9. In the case of A37G C57G A97G, the “polymerase ribozyme fitness (log ratio)” value is reported as -2.57. For C36A G84U U102A C103U U127C, the “polymerase ribozyme fitness (log ratio)” value was at most -4.2. In the case of C36G A49C G58A G70C U82G A98U U104A A106G, the “polymerase ribozyme fitness (log ratio)” value is reported as at most -4.2. With C35U G117A U144G A147C the “polymerase ribozyme fitness (log ratio)” value was -0.649. For C38U G70A C95A C99U A107U, the “polymerase ribozyme fitness (log ratio)” value was at most -4.2. For A37C A52G, the “polymerase ribozyme fitness (log ratio)” value was -0.00493. In the case of A37C U127G, the “polymerase ribozyme fitness (log ratio)” value is reported as -3.83. For A37G U145G, the “polymerase ribozyme fitness (log ratio)” value was -2.35. For C36A A39G G59U C85A A98U A107C, the “polymerase ribozyme fitness (log ratio)” value was at most -4.2. For A37G G50U A97C A137G, the “polymerase ribozyme fitness (log ratio)” value was -3.75. In the case of A39C C57G A89U A97G, the “polymerase ribozyme fitness (log ratio)” value is reported as -3.41. With A37G A52G C69A U144G the “polymerase ribozyme fitness (log ratio)” value was -4.11. In the case of A39C G48C G88U A97G U144G, the “polymerase ribozyme fitness (log ratio)” value is reported as at most -4.2. In the case of C38U C95A C103U G143A, the “polymerase ribozyme fitness (log ratio)” value is reported as -3.18. For C38U A39C C95U, the “polymerase ribozyme fitness (log ratio)” value was -2.34. For A37C A52G U82C C85G C95U C105U A142C A150G, the “polymerase ribozyme fitness (log ratio)” value was at most -4.2. In the case of C38U G71A G81A G83U C93A, the “polymerase ribozyme fitness (log ratio)” value is reported as at most -4.2. With C38U A49C A60C U82G G83A the “polymerase ribozyme fitness (log ratio)” value was at most -4.2. With A37C A40G C57U A73C C93U the “polymerase ribozyme fitness (log ratio)” value was at most -4.2. In the case of A39C A41C G65A C96A C103A U111G, the “polymerase ribozyme fitness (log ratio)” value is reported as at most -4.2. For A37C A41U G48U A73U C93G C99U G140A, the “polymerase ribozyme fitness (log ratio)” value was at most -4.2. With C36G C105U the “polymerase ribozyme fitness (log ratio)” value was -3.04. In the case of A37C A40G A52U A60G G70C G86U A119C, the “polymerase ribozyme fitness (log ratio)” value is reported as at most -4.2. With A37C G50U A52C U90C G94C C116U the “polymerase ribozyme fitness (log ratio)” value was at most -4.2. For A37G C131U U134C, the “polymerase ribozyme fitness (log ratio)” value was -1.56. For C36A C51U G68A C85G A97U, the “polymerase ribozyme fitness (log ratio)” value was at most -4.2. For C38U C95G A120U G152A, the “polymerase ribozyme fitness (log ratio)” value was -3.59. For C36U G62A A91C C96G A113U, the “polymerase ribozyme fitness (log ratio)” value was at most -4.2. With A37U C79U C116A the “polymerase ribozyme fitness (log ratio)” value was -4.15. In the case of A37U U146G, the “polymerase ribozyme fitness (log ratio)” value is reported as -2.19. With A37G G67A C79G the “polymerase ribozyme fitness (log ratio)” value was at most -4.2. For C38U A73G U101A, the “polymerase ribozyme fitness (log ratio)” value was -0.277. With C38G A98U A122C G141C the “polymerase ribozyme fitness (log ratio)” value was -2.06. In the case of A37C C38U U53A A91G, the “polymerase ribozyme fitness (log ratio)” value is reported as -3.98. With C36U C51G C76G G81C A107G G143A the “polymerase ribozyme fitness (log ratio)” value was at most -4.2. For C38U C149U, the “polymerase ribozyme fitness (log ratio)” value was -2.71. In the case of C38U A47U C54A A73G U78A A91U C114A A115U C116U G136C U146G, the “polymerase ribozyme fitness (log ratio)” value is reported as at most -4.2. With C38A C85A the “polymerase ribozyme fitness (log ratio)” value was -2.61. For C36U U55G C118G, the “polymerase ribozyme fitness (log ratio)” value was -1.72. In the case of A37C C63G C99A U111C C114U A119U, the “polymerase ribozyme fitness (log ratio)” value is reported as at most -4.2. In the case of A37U U61A C85U U134A, the “polymerase ribozyme fitness (log ratio)” value is reported as -3.78. In the case of C38G U45G U56A C93G C123A U127G, the “polymerase ribozyme fitness (log ratio)” value is reported as at most -4.2. For A37G G48C A52C U56A C79A U104A U109A C116G C149G G152A, the “polymerase ribozyme fitness (log ratio)” value was at most -4.2. With A37G C87U the “polymerase ribozyme fitness (log ratio)” value was -2.16. With A37G A60U G81A A97C A137G the “polymerase ribozyme fitness (log ratio)” value was -4.19. For C35U U44G C85U C116G C123A, the “polymerase ribozyme fitness (log ratio)” value was -3.89. For C36U A37U A73G A91U C149U G152U, the “polymerase ribozyme fitness (log ratio)” value was at most -4.2. With C35U G92A C96G A98C the “polymerase ribozyme fitness (log ratio)” value was -3.23. For C38A A49C G67A C79G, the “polymerase ribozyme fitness (log ratio)” value was at most -4.2. In the case of C36A G84A, the “polymerase ribozyme fitness (log ratio)” value is reported as -3.37.
